Columns and labels:
[1] = target: the molecule itself; assay: crystal structure; orthorhombic crystal P212121 of AGT-Ma holo, hanging drop, 21 °C, PEG 6K 12%, 0.1 M MES pH 5.0; 1.7 Å; 2 molecules (1 dimer) per asymmetric unit
[2] = target: the molecule itself; assay: crystal structure; crystal P212121 of AGT-Ma-D183N holo, sitting drop, 21 °C, PEG 10K 17%, 0.1 M Bis-Tris pH 5.5, 0.1 M ammonium acetate; 1.8 Å; eight molecules (4 dimers) per asymmetric unit

| Protein | binding result [1] | binding result [2] |
| --- | --- | --- |
| human alanine:glyoxylate aminotransferase major allele, wild type (enzyme, Lys-209 in Schiff base linkage with PLP (internal aldimine); the linkage is photoreduced and broken in the late dataset, alanine:glyoxylate aminotransferase (AGT), human, major allele; also called AGT-Ma; AGT) MASHKLLVTPPKALLKPLSIPNQLLLGPGPSNLPPRIMAAGGLQMIGSMSKDMYQIMDEIKEGIQYVFQTRNPLTLVISGSGHCALEAALVNVLEPGDSFLVGANGIWGQRAVDIGERIGARVHPMTKDPGGHYTLQEVEEGLAQHKPVLLFLTHGESSTGVLQPLDGFGELCHRYKCLLLVDSVASLGGTPLYMDRQGIDILYSGSQKALNAPPGTSLISFSDKAKKKMYSRKTKPFSFYLDIKWLANFWGCDDQPRMYHHTIPVISLYSLRESLALIAEQGLENSWRQHREAAAYLHGRLQALGLQLFVKDPALRLPTVTTVAVPAGYDWRDIVSYVIDHFDIEIMGGLGPSTGKVLRIGLLGCNATRENVDRVTEALRAALQHCPKKKL | binds | – |
| human alanine:glyoxylate aminotransferase major allele, pathogenic variant D183N (enzyme, Lys-209 in Schiff base linkage with PLP (internal aldimine), alanine:glyoxylate aminotransferase (AGT), human, major allele, with the pathogenic (primary hyperoxaluria type I) mutation D183N; also called AGT-Ma D183N; AGT-D183N) MASHKLLVTPPKALLKPLSIPNQLLLGPGPSNLPPRIMAAGGLQMIGSMSKDMYQIMDEIKEGIQYVFQTRNPLTLVISGSGHCALEAALVNVLEPGDSFLVGANGIWGQRAVDIGERIGARVHPMTKDPGGHYTLQEVEEGLAQHKPVLLFLTHGESSTGVLQPLDGFGELCHRYKCLLLVNSVASLGGTPLYMDRQGIDILYSGSQKALNAPPGTSLISFSDKAKKKMYSRKTKPFSFYLDIKWLANFWGCDDQPRMYHHTIPVISLYSLRESLALIAEQGLENSWRQHREAAAYLHGRLQALGLQLFVKDPALRLPTVTTVAVPAGYDWRDIVSYVIDHFDIEIMGGLGPSTGKVLRIGLLGCNATRENVDRVTEALRAALQHCPKKKL | – | binds |
